Sequences and labels used below:
B1: High osmolarity signaling protein SHO1 (Saccharomyces cerevisiae), P40073 (parent)
chain: MSISSKIRPTPRKPSRMATDHSFKMKKFYADPFAISSISLAIVSWVIAIGGSISSASTNESFPRFTWWGIVYQFLIICSLMLFYCFDLVDHYRIFITTSIAVAFVYNTNSATNLVYADGPKKAAASAGVILLSIINLIWILYYGGDNASPTNRWIDSFSIKGIRPSPLENSLHRARRRGNRNTTPYQNNVYNDAIRDSGYATQFDGYPQQQPSHTNYVSSTALAGFENTQPNTSEAVNLHLNTLQQRINSASNAKETNDNSNNQTNTNIGNTFDTDFSNGNTETTMGDTLGLYSDIGDDNFIYKAKALYPYDADDDDAYEISFEQNEILQVSDIEGRWWKARRANGETGIIPSNYVQLIDGPEEMHR
partner: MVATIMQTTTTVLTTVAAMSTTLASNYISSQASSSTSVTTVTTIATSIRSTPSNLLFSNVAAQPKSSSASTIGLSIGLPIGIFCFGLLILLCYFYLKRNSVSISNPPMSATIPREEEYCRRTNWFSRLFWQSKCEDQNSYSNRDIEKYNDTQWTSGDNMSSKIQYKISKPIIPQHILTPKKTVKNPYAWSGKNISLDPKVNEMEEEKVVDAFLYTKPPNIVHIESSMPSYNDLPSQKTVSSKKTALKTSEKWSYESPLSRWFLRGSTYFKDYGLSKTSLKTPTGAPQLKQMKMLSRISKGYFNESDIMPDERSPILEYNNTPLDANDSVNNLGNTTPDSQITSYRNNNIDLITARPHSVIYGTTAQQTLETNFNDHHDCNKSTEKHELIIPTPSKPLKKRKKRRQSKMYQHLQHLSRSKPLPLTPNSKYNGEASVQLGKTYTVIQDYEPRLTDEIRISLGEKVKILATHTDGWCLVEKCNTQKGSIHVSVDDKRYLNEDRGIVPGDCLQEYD

Variants of B1 are the subject of the assay. The settings on record: with fus1_yeast FUS1, P11710.
Regarding P352A, the “effect of a mutation on the interaction” value was “decreasing interaction”.
